The numbers were not newly measured in paper PMC6614495, which cites them from elsewhere.

Usually Kd stands for the concentration at which binding is half-saturated.

This data set concerns the target Amyloid beta (Homo sapiens) (UniProt P05067).

Clusterin (ApoJ), sequence (P10909 23-227): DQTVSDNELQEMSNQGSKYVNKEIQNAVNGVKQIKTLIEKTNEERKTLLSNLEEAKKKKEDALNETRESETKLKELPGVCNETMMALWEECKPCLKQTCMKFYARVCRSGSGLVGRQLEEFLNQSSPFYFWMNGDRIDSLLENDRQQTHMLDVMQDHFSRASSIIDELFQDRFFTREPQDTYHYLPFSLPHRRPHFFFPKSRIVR
Clusterin (ApoJ), sequence (P10909 228-449): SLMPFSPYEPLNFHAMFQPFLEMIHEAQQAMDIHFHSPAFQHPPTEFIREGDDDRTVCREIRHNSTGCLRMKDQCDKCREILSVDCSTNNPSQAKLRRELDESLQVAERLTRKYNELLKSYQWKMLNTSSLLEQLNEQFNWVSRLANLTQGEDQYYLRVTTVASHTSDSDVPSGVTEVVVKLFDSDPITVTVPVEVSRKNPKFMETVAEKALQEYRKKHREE
Amyloid beta (Homo sapiens), sequence (P05067 672-711): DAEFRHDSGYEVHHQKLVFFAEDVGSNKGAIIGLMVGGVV

As for Clusterin (ApoJ) (from UniProt P10909), the dissociation constant (Kd) is 2 nM.
